These results are taken from patent publication US20250051433A1 (INMAGENE PTE, published 2025).

Experiment [1] deals with T1, human long form TSLP expressed on cell membrane.
T1 construct: also called membrane long-form huTSLP fusion protein; membrane long-form TSLP fusion protein
Put plainly: FACS on cells expressing the membrane human long-form TSLP fusion protein, MFI; unit taken from the concentration axis.

The target of experiment [2] is T2, mouse long-form TSLP protein (ACRO, tsp-m52h8) (mouse, UniProt Q9JIE6 20-140).
T2 construct: Bought; also called mouse TSLP
T2 sequence (looked up): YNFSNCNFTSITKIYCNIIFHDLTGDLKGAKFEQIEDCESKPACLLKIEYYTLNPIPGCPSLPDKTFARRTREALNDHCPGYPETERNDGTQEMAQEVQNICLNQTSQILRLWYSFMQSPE
The experiment is described as follows: ELISA on coated mouse long-form TSLP. A general note: An ELISA detects its analyte on a solid surface through an enzyme-linked reagent.

The target in experiment [3] is T1, human long form TSLP expressed on cell …. The experiment is described as follows: FACS on cells expressing the membrane human long-form TSLP fusion protein, MFI; rising binding curve, but the table column is headed IC50; unit taken from the concentration axis.
Experiment [4] shares this target. The experiment is described as follows: FACS on cells expressing the membrane human long-form TSLP fusion protein, MFI; unit taken from the concentration axis. The source holds these as a separate data set.
The target is the same in experiment [5]. The experiment is described as above. This is another data set of the same source.
The target in experiment [6] is T3, membrane short-form huTSLP fusion protein (human).
T3 construct: also called human short form TSLP expressed on cell membrane
The experiment is described as follows: FACS on cells expressing membrane short-form huTSLP, MFI; ambiguous fit of a flat curve (Bottom 778.2, Top 872.2), see non_binding; unit taken from the concentration axis.

In experiment [7] the target is T1, human long form TSLP expressed on cell …. Put plainly: FACS on cells expressing the membrane human long-form TSLP fusion protein, MFI; unit taken from the concentration axis. This is another data set of the same source.
Experiment [8] addresses T4, cynomolgus long-form TSLP protein (ACRO, tsp-c52h8) (cynomolgus monkey, UniProt A0A7N9CAT7 29-159).
T4 construct: also called monkey long-form TSLP; Cyno TSLP
T4 sequence: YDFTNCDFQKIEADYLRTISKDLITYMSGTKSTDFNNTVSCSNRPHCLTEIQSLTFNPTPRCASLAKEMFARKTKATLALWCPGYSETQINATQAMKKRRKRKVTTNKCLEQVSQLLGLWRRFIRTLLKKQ
Put plainly: ELISA on coated cynomolgus long-form TSLP, OD450; curve still rising at the highest concentration (about 1.2 at about 20 µg/mL, fitted Top 1.343); unit taken from the concentration axis.

T1 sequence (chain, as listed by the source): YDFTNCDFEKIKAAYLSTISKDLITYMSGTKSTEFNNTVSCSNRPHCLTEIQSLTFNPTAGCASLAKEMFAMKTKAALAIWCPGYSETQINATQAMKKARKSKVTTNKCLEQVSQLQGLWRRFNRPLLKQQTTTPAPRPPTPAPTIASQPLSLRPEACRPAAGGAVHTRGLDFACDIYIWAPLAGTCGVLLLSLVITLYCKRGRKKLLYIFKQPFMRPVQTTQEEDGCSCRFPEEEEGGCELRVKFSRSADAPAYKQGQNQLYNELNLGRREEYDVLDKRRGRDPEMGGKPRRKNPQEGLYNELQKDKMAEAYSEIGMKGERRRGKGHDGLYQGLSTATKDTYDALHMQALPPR
T3 sequence (chain, as listed by the source limits assumed): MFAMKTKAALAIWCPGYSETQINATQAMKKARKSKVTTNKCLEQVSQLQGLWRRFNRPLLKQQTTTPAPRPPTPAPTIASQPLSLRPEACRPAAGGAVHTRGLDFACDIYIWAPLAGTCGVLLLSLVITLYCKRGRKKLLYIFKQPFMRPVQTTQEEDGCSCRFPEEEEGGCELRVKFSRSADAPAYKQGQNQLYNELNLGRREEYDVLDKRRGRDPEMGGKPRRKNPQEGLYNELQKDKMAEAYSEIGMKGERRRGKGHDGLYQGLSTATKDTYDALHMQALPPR

B1: AMG 157 (antibody, human IgG2, lambda, V domains shown)
VH: QMQLVESGGGVVQPGRSLRLSCAASGFTFRTYGMHWVRQAPGKGLEWVAVIWYDGSNKHYADSVKGRFTITRDNSKNTLNLQMNSLRAEDTAVYYCARAPQWELVHEAFDIWGQGTMVTVSS
VL: SYVLTQPPSVSVAPGQTARITCGGNNLGSKSVHWYQQKPGQAPVLVVYDDSDRPSWIPERFSGSNSGNTATLTISRGEAGDEADYYCQVWDSSSDHVVFGGGTKLTVLG
notes: also called BMK; benchmark
Usually EC50 stands for the midpoint of the concentration-response curve. A high value points to a need for much substance. For B1, the EC50 in experiment [1] is 0.0466 µg/mL; in experiment [3] it was 0.515 µg/mL; in experiment [4] it was 0.219 µg/mL; in experiment [5], 0.156 µg/mL; in experiment [6], about 13.5 µg/mL; in experiment [7], 0.0712 µg/mL. The half-maximal effective concentration (EC50) in experiment [8] came to 1.24 µg/mL. For the same molecule, in experiment [2], the binding result is on record as “no binding (tested: about 20 µg/mL)”.
